The values that follow come from US9102922B2, “Trehalose phosphorylases and their use in the biocatalytic production of trehalose-analogues and glycosyl phosphates” (Universiteit Gent, priority 2010, dated 2015).

The target of one data set is TP from C. pacificum (Caldanaerobacter subterraneus, UniProt Q8RBK9). The data set can be described thus: Synthetic activity of TP on monosaccharide acceptors (released phosphate, molybdate assay). The conditions noted are these: acceptor 500 mM; 60° C. and pH 6; D-glucose = 100. It is filed as biochemical, Carboxydibrachium pacificum. The method, then: (§1) The phosphorolytic activity of the enzyme was determined using a discontinuous assay in which the released glucose is converted by glucose oxidase and peroxidase (GOD-POD)(Werner et al., 1970). The activity was assayed in 30 mM phosphate buffer at pH 7 and 60° C., using 30 mM disaccharide as substrate. The synthetic activity of the enzyme was determined using a discontinuous assay in which the released phosphate is complexed by molybdate and ascorbic acid (Gawronski and Benson, 2004). The activity was assayed in 50 mM MES buffer at pH 6 and 60° C., using 30 mM β-glucose-1-phosphate as donor and 500 mM of acceptor substrates.

Data set [1] deals with trehalose phosphorylase (TP). The data set can be described thus: Phosphorolytic activity of the TP on other α-glucobioses (GOD-POD assay). It is filed as biochemical, Caldanaerobacter subterraneus. As to the method:
as §1

The test system of a further data set is intestinal trehalase. The note with it: cited from earlier work.
A short description of data set [2]: Kinetic parameters of TP variants on glucose as acceptor. The format is biochemical. The conditions noted are these: Glc as acceptor; 60° C. and pH 6. The method, then: (§2) […] The synthetic activity of the enzyme was determined using a discontinuous assay in which the released phosphate is complexed by molybdate and ascorbic acid (Gawronski and Benson, 2004). […] Site-saturation mutagenesis was performed with degenerate primers (NNK) as described by […] et al. (2008), and random mutagenesis was performed with the GeneMorph II EZClone Domain Mutagenesis Kit (Stratagene) according to the manufacturer's instructions. The resulting DNA libraries were transformed into E. coli XL10-Gold, after which the cells were grown on solid LB medium in a Petri dish. Colonies were then transferred to 96-well microtiter plates containing liquid LB medium, in which enzyme expression was induced. Enzyme was extracted by the addition of lysis buffer with a liquid handling robot (Freedom EVO 200, Tecan) and the crude cell extracts were used for enzyme screening. Acceptor screening was performed with the phosphomolybdate assay described above. […] The clones with the highest activity were sequenced to identify the introduced mutations. The improved enzyme variants were then produced and purified as described for the wild-type enzyme, to allow a more detailed characterization.

Data set [3] in a line: Phosphorolytic activity of the enzyme: specific activity, optimal pH and temperature. It is filed as biochemical. As to the method:
as §1

A short description of data set [4]: Kinetic parameters of TP variants on galactose as acceptor. It is filed as biochemical. The note with it: Gal as acceptor; 60° C. and pH 6. The method, then:
as §2

Data set [5] in a line: Donor specificity: phosphorolysis of lactotrehalose by CsTP variants (release of βGal1P and βGlc1P). The format is biochemical. The note with it: for Ratio βGal1P/βGlc1P / Release of βGal1P / Release of βGlc1P: 100 mM lactotrehalose, pH 7 and 60° C.
Substrate in data set [6]: OC[C@H]1OC(O)[C@H](O)[C@@H](O)[C@@H]1O
The experiment in a line: Synthetic activity of TP on monosaccharide acceptors (released phosphate, molybdate assay). The format is biochemical, Carboxydibrachium pacificum. The note with it: other: 60° C. and pH 6.

Data set [7] in a line: Thermostability of the enzyme (residual activity after incubation). It is filed as physicochemical. The conditions noted are these: 1 hour incubation at 65° C.
A short description of data set [8]: Specific activity of TP variant on mannose as acceptor. The format is biochemical. The note with it: compared with wild-type CsTP. As to the method: The activity was assayed in 30 mM phosphate buffer at pH 7 and 60° C., using 30 mM disaccharide as substrate. The synthetic activity of the enzyme was determined using a discontinuous assay in which the released phosphate is complexed by molybdate and ascorbic acid (Gawronski and Benson, 2004). […] Site-saturation mutagenesis was performed with degenerate primers (NNK) as described by […] et al. (2008), and random mutagenesis was performed with the GeneMorph II EZClone Domain Mutagenesis Kit (Stratagene) according to the manufacturer's instructions. The resulting DNA libraries were transformed into E. coli XL10-Gold, after which the cells were grown on solid LB medium in a Petri dish. Colonies were then transferred to 96-well microtiter plates containing liquid LB medium, in which enzyme expression was induced. Enzyme was extracted by the addition of lysis buffer with a liquid handling robot (Freedom EVO 200, Tecan) and the crude cell extracts were used for enzyme screening. Acceptor screening was performed with the phosphomolybdate assay described above. […] The clones with the highest activity were sequenced to identify the introduced mutations. The improved enzyme variants were then produced and purified as described for the wild-type enzyme, to allow a more detailed characterization.

Residue numbers refer to the chain shown, from its start. Names may count otherwise.

With `O=C[C@@H](O)[C@@H](O)[C@H](O)CO` [D-Lyxose], the “Relative activity (%)” value at TP from C. pacificum was 1%.
Turning to `OC[C@H]1O[C@H](O[C@H]2[C@H](O)[C@@H](O)C(O)O[C@@H]2CO)[C@H](O)[C@@H](O)[C@@H]1O` (mixture of isomers) [maltose], in data set [1], the “Activity towards other α-glucobioses” value was “could not be detected”.
`O=C[C@@H](O)[C@H](O)[C@H](O)CO` [D-Arabinose]: on TP from C. pacificum, the “Relative activity (%)” value is recorded as 2%.
As to `OC[C@H]1O[C@H](O[C@H]2O[C@H](CO)[C@@H](O)[C@H](O)[C@H]2O)[C@H](O)[C@@H](O)[C@H]1O` [lactotrehalose, Galactose-α-1,1-α-glucose], in the data set with intestinal trehalase, the “effect on intestinal trehalase” value is listed as “competitive inhibitor” and the “hydrolysis by intestinal trehalase” value was “not hydrolysed”.
`OC[C@H]1O[C@H](O[C@H]2C(O)O[C@H](CO)[C@@H](O)[C@@H]2O)[C@H](O)[C@@H](O)[C@@H]1O` (some centres unmarked) [kojibiose]: the “Activity towards other α-glucobioses” value in [1] is “could not be detected”.

B1: TP from C. pacificum (Caldanaerobacter subterraneus subsp. tengcongensis MB4) (protein)
chain: MDMVKKTKKPIYPFEDWTIRETEFSIETNYRNETIFAQANGYMGMRGNFEEGYSGPDGTSLKGTYINGFYEIHDIIYPEGGYGFAKTGQTMLNVADSKIIELYVGEEKFDLLKGKIHFYERVLDMKKGCVERKIKWESPSGKIVNVKIKRIVSLQRQHLAVISFSVEPVNFTGNIKFVSAIDGDVRNITESEDVRVGSNLKGRVLETVERGTNGFEGWISQKTQKSNLSYTCAMKNELIGTEKYEVLNNVKEDRVEVAVAFKAEKNRVYILNKFISYYTSKDCDKSETMKLALEEVRRAQEDGFCKIEKEQEEFLQSFWEDADVVIEGDKALQQGIRFNMFHLLQSVGRDGKTNIAAKGLTGEGYEGHYFWDSDIYILPFFLYTKPEIAKALIMYRYNLLDAARNRAKELGHKGALYPWRTIDGPECSAYFPAGTAQYHINADIVYALKKYVEATNDLDFLYDYGCEIVFETARFWEDLGAYIPLKGNKFCINTVTGPDEYTALVDNNAYTNYMAKMNLEYAYDIANKMKKEVPEKYQKVASKLNLKDEEIASWKRAANNMYLPYSEELDIIPQDDSFLYKERITVDEIPEDQFPLLLHWHYLNIYRYQICKQPDVLLLMFLQREKFTIEQLKKNFDYYEPITTHDSSLSPAIFSILANEIGYTDKAYKYFMMTARMDLDDYNDNVKDGIHAAAMAGSWSAVVNGFGGMRVYTDELHFTPGLPEGWKMLSFNVKYKGRKINVKLTHEESVFTLLEGEPIEIFYFDRRVLIKSGENILKGYEEK
On to B1, for which, in data set [2], the Km turned out to be 3.5 mM and the kcat was found to be 59 s⁻¹. In addition, in data set [3], the “optimal pH for phosphorolytic activity” value was determined as 7 and the “optimal temperature for phosphorolytic activity” value is 80 °C. The same molecule displayed a specific activity in [3] (phosphorolysis of trehalose) of 39.8±3.5 U/mg. In addition, the kcat in data set [4] is 54 s⁻¹. In [5], the “donor preference in phosphorolysis of lactotrehalose” value is “almost exclusively produces β-Glc1P”, the “Ratio βGal1P/βGlc1P” value was determined as 0.04, the “Release of βGal1P” value came out at 0.13 U/mg and the “Release of βGlc1P” value was 3.0 U/mg. Further, in [6], the Km is listed as 3.5 ± 0.7 mM, the kcat worked out at 59 ± 5.4 s⁻¹ and the kcat/Km worked out at 17000 ± 4000 M⁻¹ s⁻¹. In addition, the “activity retained after incubation” value in [7] is 100%.

B2: A442V: CsTP mutant, Ala442 of SEQ ID N° 1 into Val (protein, listed as Caldanaerobacter subterraneus)
chain: B1 chain with A442V
Turning to B2, the Km in data set [2] worked out at 2.3 mM; in data set [4] it was 70.2 mM. Further, the values for the kcat in data set [2] and in data set [4] were 67 s⁻¹ and 52 s⁻¹, respectively.

B3: K450N: CsTP with mutation K450N (protein, listed as Caldanaerobacter subterraneus)
chain: B1 chain with K450N
B3: in [8], the “change in specific activity on mannose as acceptor” value is listed as “significantly increases”.

B4: L649G: CsTP variant, leucine at position 649 of SEQ ID N° 1 substituted for glycine (protein, listed as Caldanaerobacter subterraneus)
chain: B1 chain with L649G
Consider B4, for which, in data set [5], the “donor preference in phosphorolysis of lactotrehalose” value is recorded as “preferentially produced βGal1P”, the “Ratio βGal1P/βGlc1P” value is reported as 2.6, the “Release of βGal1P” value is on record as 0.22 U/mg and the “Release of βGlc1P” value is 0.09 U/mg. Further, the “fold increase in the ratio of beta-galactose-1-phosphate over beta-glucose-1-phosphate release from lactotrehalose” value in data set [5] (compared with wild type) turned out to be 60 fold.

B5: N659Y: CsTP mutant at position 659 of SEQ ID N° 1 (protein, listed as Caldanaerobacter subterraneus)
chain: B1 chain with N659Y
Consider B5, for which the values for the Km in [2] and in data set [4] were 1.2 mM and 46.3 mM, respectively. In addition, the values for the kcat in [2] and in data set [4] were 46 s⁻¹ and 51 s⁻¹, respectively.

B6: K450S: CsTP mutant, lysine at position 450 of SEQ ID N° 1 substituted for serine (protein, listed as Caldanaerobacter subterraneus)
chain: B1 chain with K450S
For B6, in data set [2], the Km was 2.3 mM and the kcat is 62 s⁻¹. In data set [4], the Km came out at 78.4 mM and the kcat came out at 53 s⁻¹.

One may read the Km as the substrate concentration at which the rate is half of its maximum. As usually defined, the kcat is the number of substrate molecules converted per active site and unit of time at saturation. For orientation: kcat/Km means the turnover number divided by the Michaelis constant.
